According to the supplement of paper PMC9112550, “Optimization of the antimicrobial peptide Bac7 by deep mutational scanning” (BMC Biology, 2022):

system: Escherichia coli TOP10; assay: shrunken log2 fold change of peptide-encoding DNA abundance (4.5 h post-induction vs induction); higher = less antimicrobial activity (less host growth inhibition); conditions: time post-induction: 4.5 h; library: site-saturation at positions 5, 18, 19, 20
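Further: peptides expressed intracellularly from a pBAD plasmid library in pooled LB shake-flask culture, induced with 0.3% L-arabinose, DNA abundance read by NGS, three biological replicates, DESeq2 with apeglm shrinkage.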

Sequence	shrunken log2 fold change
RRIRYRPPRLPRPRPRPPLVPRP	0.174
RRIRARPPRLPRPRPRPVVRPRP	0.481
RRIRYRPPRLPRPRPRPHDDPRP	0.0514
RRIRKRPPRLPRPRPRPRPLPRP	0.73
RRIRNRPPRLPRPRPRPADGPRP	0.085
RRIRWRPPRLPRPRPRPSKMPRP	-0.0978
RRIRLRPPRLPRPRPRPDCQPRP	0.153
RRIRIRPPRLPRPRPRPFVTPRP	-0.938
RRIRCRPPRLPRPRPRPCIEPRP	-0.453
RRIRQRPPRLPRPRPRPCENPRP	0.0237
RRIRRRPPRLPRPRPRPMIFPRP	-0.241
RRIRWRPPRLPRPRPRPGFTPRP	0.132
RRIRARPPRLPRPRPRPEADPRP	1.53
RRIRNRPPRLPRPRPRPCGWPRP	0.0822
RRIRTRPPRLPRPRPRPAPLPRP	0.368
RRIRCRPPRLPRPRPRPSGAPRP	0.176
RRIRNRPPRLPRPRPRPPTLPRP	-0.204
RRIRCRPPRLPRPRPRPHTDPRP	-0.246
RRIRKRPPRLPRPRPRPESKPRP	0.727
RRIRGRPPRLPRPRPRPSFMPRP	0.0373
RRIRTRPPRLPRPRPRPCPKPRP	0.0604
RRIRDRPPRLPRPRPRPGWYPRP	0.178
RRIRIRPPRLPRPRPRPRIAPRP	-0.0281
RRIRIRPPRLPRPRPRPMPLPRP	0.124
RRIRVRPPRLPRPRPRPGMLPRP	-0.333

Sequence	shrunken log2 fold change
RRIRHRPPRLPRPRPRPLNVPRP	-0.588
RRIRSRPPRLPRPRPRPGCCPRP	0.396
RRIRERPPRLPRPRPRPYRKPRP	-0.264
RRIRWRPPRLPRPRPRPGNAPRP	0.146
RRIRCRPPRLPRPRPRPECKPRP	-0.255
RRIRERPPRLPRPRPRPSKCPRP	-0.488
RRIRERPPRLPRPRPRPQPYPRP	-0.43
RRIRQRPPRLPRPRPRPDEGPRP	-0.106
RRIRYRPPRLPRPRPRPSNYPRP	-1.28
RRIRERPPRLPRPRPRPNIVPRP	-0.232
RRIRLRPPRLPRPRPRPDVNPRP	-0.137
RRIRSRPPRLPRPRPRPFPNPRP	-0.133
RRIRMRPPRLPRPRPRPQKKPRP	-0.0151
RRIRWRPPRLPRPRPRPVIPPRP	-0.0775
RRIRERPPRLPRPRPRPVHDPRP	-0.687
RRIRSRPPRLPRPRPRPYAMPRP	-0.909
RRIRLRPPRLPRPRPRPTQCPRP	0.0455
RRIRRRPPRLPRPRPRPSGFPRP	0.0452
RRIRGRPPRLPRPRPRPFPGPRP	0.0889
RRIRTRPPRLPRPRPRPMIPPRP	-0.12
RRIRWRPPRLPRPRPRPFCRPRP	0.0689
RRIRQRPPRLPRPRPRPYTQPRP	-0.25
RRIRSRPPRLPRPRPRPRHFPRP	0.141
RRIRQRPPRLPRPRPRPCYRPRP	-0.00251
RRIRRRPPRLPRPRPRPMVWPRP	0.686

Sequence	shrunken log2 fold change
RRIRPRPPRLPRPRPRPFPKPRP	0.166
RRIRGRPPRLPRPRPRPANPPRP	0.476
RRIRWRPPRLPRPRPRPWSSPRP	-0.0663
RRIRERPPRLPRPRPRPGFRPRP	0.231
RRIRTRPPRLPRPRPRPWARPRP	-0.00874
RRIRPRPPRLPRPRPRPEINPRP	-0.264
RRIRDRPPRLPRPRPRPRWAPRP	0.0236
RRIRQRPPRLPRPRPRPFRAPRP	0.0134
RRIRTRPPRLPRPRPRPWWSPRP	-0.143
RRIRTRPPRLPRPRPRPRSRPRP	0.143
RRIRNRPPRLPRPRPRPRAHPRP	-0.0951
RRIRLRPPRLPRPRPRPRQQPRP	0.319
RRIRYRPPRLPRPRPRPYTIPRP	-0.0225
RRIRFRPPRLPRPRPRPLNIPRP	-0.594
RRIRDRPPRLPRPRPRPTHEPRP	1.09
RRIRDRPPRLPRPRPRPEDIPRP	0.0238
RRIRSRPPRLPRPRPRPLAPPRP	0.223
RRIRTRPPRLPRPRPRPWVTPRP	-0.117
RRIRFRPPRLPRPRPRPAEVPRP	-0.127
RRIRIRPPRLPRPRPRPHVNPRP	2.48
RRIRARPPRLPRPRPRPWMFPRP	-0.0244
RRIRVRPPRLPRPRPRPNFWPRP	0.137
RRIRPRPPRLPRPRPRPIKIPRP	-0.319
RRIRKRPPRLPRPRPRPRIRPRP	0.344
RRIRKRPPRLPRPRPRPNCMPRP	-0.0663
